Test results: article PMC7000685 (Nature Communications, 2020)

B1: human glutamine fructose-6-phosphate amidotransferase-1 (GFAT-1) isoform 2, full length, with internal His6-tag (enzyme, UniProt Q06210-2 1-681, looked up)
chain: MCGIFAYLNYHVPRTRREILETLIKGLQRLEYRGYDSAGVGFDGGNDKDWEANACKIQLIKKKGKVKALDEEVHKQQDMDLDIEFDVHLGIAHTRWATHGEPSPVNSHPQRSDKNNEFIVIHNGIITNYKDLKKFLESKGYDFESETDTETIAKLVKYMYDNRESQDTSFTTLVERVIQQLEGAFALVFKSVHFPGQAVGTRRGSPLLIGVRSEHKLSTDHIPILYRTGKDKKGSCNLSRVDSTTCLFPVEEKAVEYYFASDASAVIEHTNRVIFLEDDDVAAVVDGRLSIHRIKRTAGDHPGRAVQTLQMELQQIMKGNFSSFMQKEIFEQPESVVNTMRGRVNFDDYTVNLGGLKDHIKEIQRCRRLILIACGTSYHAGVATRQVLEELTELPVMVELASDFLDRNTPVFRDDVCFFLSQSGETADTLMGLRYCKERGALTVGITNTVGSSISRETDCGVHINAGPEIGVASTKAYTSQFVSLVMFALMMCDDRISMQERRKEIMLGLKRLPDLIKEVLSMDDEIQKLATELYHQKSVLIMGRGYHYATCLEGALKIKEITYMHSEGILAGELKHGPLALVDKLMPVIMIIMRDHTYAKCQNALQQVVARQGRPVVICDKEDTETIKNTKRTIKVPHSVDCLQGILSVIPLQLLAFHLAVLRGYDVDFPRNLAKSVTVE
modifications: phosphoserine at 243 (found in mass spectrometry and in the crystal structure)
notes: human GFAT-1 isoform 2 (glutamine fructose-6-phosphate amidotransferase-1, EC 2.6.1.16), full length; residue numbers run to 681 (C-loop 670-681); His6 inserted between Gly299 and Asp300; Initial methionine removed in the purified protein; also called GFAT-1 WT; wild type GFAT-1; source: Sf21 insect cells (MultiBac baculovirus), purified (Ni-NTA, SEC); not shown: His6, internal (after residue …)
B2: human GFAT-1 G451E (isoform 2, full length, with internal His6-tag) (enzyme, UniProt Q06210-2 1-681, looked up)
chain: MCGIFAYLNYHVPRTRREILETLIKGLQRLEYRGYDSAGVGFDGGNDKDWEANACKIQLIKKKGKVKALDEEVHKQQDMDLDIEFDVHLGIAHTRWATHGEPSPVNSHPQRSDKNNEFIVIHNGIITNYKDLKKFLESKGYDFESETDTETIAKLVKYMYDNRESQDTSFTTLVERVIQQLEGAFALVFKSVHFPGQAVGTRRGSPLLIGVRSEHKLSTDHIPILYRTGKDKKGSCNLSRVDSTTCLFPVEEKAVEYYFASDASAVIEHTNRVIFLEDDDVAAVVDGRLSIHRIKRTAGDHPGRAVQTLQMELQQIMKGNFSSFMQKEIFEQPESVVNTMRGRVNFDDYTVNLGGLKDHIKEIQRCRRLILIACGTSYHAGVATRQVLEELTELPVMVELASDFLDRNTPVFRDDVCFFLSQSGETADTLMGLRYCKERGALTVGITNTVESSISRETDCGVHINAGPEIGVASTKAYTSQFVSLVMFALMMCDDRISMQERRKEIMLGLKRLPDLIKEVLSMDDEIQKLATELYHQKSVLIMGRGYHYATCLEGALKIKEITYMHSEGILAGELKHGPLALVDKLMPVIMIIMRDHTYAKCQNALQQVVARQGRPVVICDKEDTETIKNTKRTIKVPHSVDCLQGILSVIPLQLLAFHLAVLRGYDVDFPRNLAKSVTVE
notes: human GFAT-1 isoform 2, full length, with G451E; His6 inserted between Gly299 and Asp300 (made from pFL-hGFAT1-His299); Same construct as m1 with the point mutation G451E; source: Sf21 insect cells (MultiBac baculovirus), purified (Ni-NTA, SEC)

Target: the molecule itself
Test: crystal structure; sitting-drop vapor diffusion at 20 °C, 8 mg/ml GFAT-1; 0.1 M Bis tris propane pH 8.5-9.0, 0.2-0.4 M potassium sodium tartrate, 20% (w/v) PEG3350; SEC buffer with Frc6P, 50 mM L-Arg and 50 mM L-Glu; two monomers in the asymmetric unit

Row | Protein | stoichiometry N | binding result
1 | B1 | 2 | 
2 | B2 |  | binds
